Source: the RNAGym collection of RNA variant scans (doi:10.1073/pnas.2313332121)

B1: TPR t1 (parent)
chain: GACCAAUCUGCCCUCAGAGCUCGAGAACAUCUUCGGAUGCAGAGGAGGCAGGCUUCGGUGGCGCGAUAGCGCCAACGUCCUCAACCUCCAAUGCAUCCCACCACAUGAUGAUGCCUGAAGAGCCUUGGUUUUUUG

Variants of: B1
Experiment: polymerase ribozyme fitness, log enrichment relative to wild type (log ratio); higher = more active; in vitro selection for triplet polymerase activity
Outline: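 Mutant libraries for each subunit of a heterodimeric triplet polymerase ribozyme were made by PCR and then transcribed. Each library underwent one round of in vitro selection in triplicate: annealing with a biotinylated primer, the partner subunit and triplets, frozen incubation at −7 °C, gel excision of extended constructs, streptavidin-bead capture and RT-PCR. Input and output libraries were Illumina-sequenced, and only genotypes with ≥10 input reads and ≥1 read per output were kept. Fitness is the logarithm, base 2, of genotype enrichment over wild-type enrichment, computed from inverse-variance-weighted replicate averages.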

Row | Variant | polymerase ribozyme fitness (log ratio)
1 | GACCAAUCUGCCCUCAGAGCUCGAGAACAUCUUCGGAUGCAGAGGAGGCAGGCUUCGGUGGCGCGAUAGCGCCAACGUCCUCAACCUCCAAUGCAUCCCAACACAUGAUGAUGUCUGAAGAGCCUUGGUUUUUUG [C101A C114U] | -2.99
2 | GACCAAUCUGCCCUCAGAGCUCGAGAACAUCUUCGGAUGCAGAGGAGGCAGGCUUCGGUGGCGCGAUAGCGCCAACGUCCUCAACCUCCAAUGCAUCCCAACACAUGAUGAUGACUGAAGAGCCUUGGUUUUUUG [C101A C114A] | -2.19
3 | GACCAAUCUGCCCUCAGAGCUCGAGAACAUCUUCGGAUGCAGAGGAGGCAGGCUUCGGUGGCGCGAUAGCGCCAACGUCCUCAACCUCCAAUGCAUCCCACAACAUGAAGAUGCCUGAAGAGCCUUGGUUUUUUG [C102A U109A] | -5.92
4 | GACCAAUCUGCCCUCAGAGCUCGAGAACAUCUUCGGAUGCAGAGGAGGCAGGCUUCGGUGGCGCGAUAGCGCCAACGUCCUCAACCUCCAAUGCAUCCCAACACAUGAUGAUGCCUCAAGAGCCUUGGUUUUUUG [C101A G117C] | -5.15
5 | GACCAAUCUGCCCUCAGAGCUCGAGAACAUCUUCGGAUGCAGAGGAGGCAGGCUUCGGUGGCGCGAUAGCGCCAACGUCCUCAACCUCCAAUGCAUCCCAACACAUGAUGAUGCCUAAAGAGCCUUGGUUUUUUG [C101A G117A] | -2.65
6 | GACCAAUCUGCCCUCAGAGCUCGAGAACAUCUUCGGAUGCAGAGGAGGCAGGCUUCGGUGGCGCGAUAGCGCCAACGUCCUCAACCUCCAAUGCAUCCCCCCACAUGAUGAUGCCUGAAGAGCCUUGGUUUUGUG [A100C U133G] | -1.12
7 | GACCAAUCUGCCCUCAGAGCUCGAGAACAUCUUCGGAUGCAGAGGAGGCAGGCUUCGGUGGCGCGAUAGCGCCAACGUCCUCAACCUCCAAUGCAUCCCUCCACAUGAUGAUGCCCGAAGAGCCUUGGUUUUUUG [A100U U116C] | -2.35
8 | GACCAAUCUGCCCUCAGAGCUCGAGAACAUCUUCGGAUGCAGAGGAGGCAGGCUUCGGUGGCGCGAUAGCGCCAACGUCCUCAACCUCCAAUGCAUCCCUCCACAUGAUGAUGCCUGAAGAGGCUUGGUUUUUUG [A100U C123G] | -1.75
9 | GACCAAUCUGCCCUCAGAGCUCGAGAACAUCUUCGGAUGCAGAGGAGGCAGGCUUCGGUGGCGCGAUAGCGCCAACGUCCUCAACCUCCAAUGCAUCCCAUCACAUGAUGCUGCCGGAAGAGCCUUGGUUUUUUG [C101U A111C U116G] | -2.46
10 | GACCAAUCUGCCCUCAGAGCUCGAGAACAUCUUCGGAUGCAGAGGAGGCAGGCUUCGGUGGCGCGAUAGCGCCAACGUCCUCAACCUCCAAUGCAUCCCACAACAUGAUGAUACCUGAAGAGCCUUGGUUUUUUG [C102A G113A] | -2.68
11 | GACCAAUCUGCCCUCAGAGCUCGAGAACAUCUUCGGAUGCAGAGGAGGCAGGCUUCGGUGGCGCGAUAGCGCCAACGUCCUCAACCUCCAAUGCAUCCCAGCACAUGAUGAUGCCUGAAGAGUCUUGGUUUUUUG [C101G C123U] | -0.756
12 | GACCAAUCUGCCCUCAGAGCUCGAGAACAUCUUCGGAUGCAGAGGAGGCAGGCUUCGGUGGCGCGAUAGCGCCAACGUCCUCAACCUCCAAUGCAUCCCAUCACAUGACGAUGCCUGAAGAGCCUUGGUUUUUUG [C101U U109C] | -3.93
13 | GACCAAUCUGCCCUCAGAGCUCGAGAACAUCUUCGGAUGCAGAGGAGGCAGGCUUCGGUGGCGCGAUAGCGCCAACGUCCUCAACCUCCAAUGCAUCCCAACACCUGAUGAUGCCUGUAGAGCCUUGGUUUUUUG [C101A A105C A118U] | -4.79
14 | GACCAAUCUGCCCUCAGAGCUCGAGAACAUCUUCGGAUGCAGAGGAGGCAGGCUUCGGUGGCGCGAUAGCGCCAACGUCCUCAACCUCCAAUGCAUCCCAGCACAUGAUGAUGCCUGAAGAACCUUGGUUUUUUG [C101G G122A] | -2.93
15 | GACCAAUCUGCCCUCAGAGCUCGAGAACAUCUUCGGAUGCAGAGGAGGCAGGCUUCGGUGGCGCGAUAGCGCCAACGUCCUCAACCUCCAAUGCAUCCCAUCACAUGAUGAUGCCUGAAGAGACUUGGUUUUUUG [C101U C123A] | 0.0488
16 | GACCAAUCUGCCCUCAGAGCUCGAGAACAUCUUCGGAUGCAGAGGAGGCAGGCUUCGGUGGCGCGAUAGCGCCAACGUCCUCAACCUCCAAUGCAUCCCAGCACAUGAUGAUGCCUGAAGAGCCUUAGUUUUUUG [C101G G127A] | -2.28
17 | GACCAAUCUGCCCUCAGAGCUCGAGAACAUCUUCGGAUGCAGAGGAGGCAGGCUUCGGUGGCGCGAUAGCGCCAACGUCCUCAACCUCCAAUGCAUCCCAGGACAUGAUCAUGCCUGAAGAGCCUUGGUUUUUUG [C101G C102G G110C] | -4.36
18 | GACCAAUCUGCCCUCAGAGCUCGAGAACAUCUUCGGAUGCAGAGGAGGCAGGCUUCGGUGGCGCGAUAGCGCCAACGUCCUCAACCUCCAAUGCAUCCCAGCACAUGAUUAUGCCUGAAGAGCCUUGGUUUUUUG [C101G G110U] | -4.98
19 | GACCAAUCUGCCCUCAGAGCUCGAGAACAUCUUCGGAUGCAGAGGAGGCAGGCUUCGGUGGCGCGAUAGCGCCAACGUCCUCAACCUCCAAUGCAUCCCAACACAUGAUGAUGCCUGAAGAGCCUUCGUUUUUUG [C101A G127C] | -1.82
20 | GACCAAUCUGCCCUCAGAGCUCGAGAACAUCUUCGGAUGCAGAGGAGGCAGGCUUCGGUGGCGCGAUAGCGCCAACGUCCUCAACCUCCAAUGCAUCCCAUCACAUGAUGAUGCCUGAAGAGCAUUGGUUUUUUG [C101U C124A] | 1.17
21 | GACCAAUCUGCCCUCAGAGCUCGAGAACAUCUUCGGAUGCAGAGGAGGCAGGCUUCGGUGGCGCGAUAGCGCCAACGUCCUCAACCUCCAAUGCAUCCCAACACAUGAUAAUGCCUGAAGAGCCUUGGUUUUUUG [C101A G110A] | -2.55
